Source: patent US20220242950A1 (CANTARGIA, published 2022)
Where two headings read alike, the source gives them in different places. Each block holds one binder with its values, some of them ahead of it.

Columns and labels:
[1] = target: T1, human IL1RAP on the cell surface (human, UniProt Q9NPH3 21-570); assay: cell-based or functional assay
T1 sequence (looked up): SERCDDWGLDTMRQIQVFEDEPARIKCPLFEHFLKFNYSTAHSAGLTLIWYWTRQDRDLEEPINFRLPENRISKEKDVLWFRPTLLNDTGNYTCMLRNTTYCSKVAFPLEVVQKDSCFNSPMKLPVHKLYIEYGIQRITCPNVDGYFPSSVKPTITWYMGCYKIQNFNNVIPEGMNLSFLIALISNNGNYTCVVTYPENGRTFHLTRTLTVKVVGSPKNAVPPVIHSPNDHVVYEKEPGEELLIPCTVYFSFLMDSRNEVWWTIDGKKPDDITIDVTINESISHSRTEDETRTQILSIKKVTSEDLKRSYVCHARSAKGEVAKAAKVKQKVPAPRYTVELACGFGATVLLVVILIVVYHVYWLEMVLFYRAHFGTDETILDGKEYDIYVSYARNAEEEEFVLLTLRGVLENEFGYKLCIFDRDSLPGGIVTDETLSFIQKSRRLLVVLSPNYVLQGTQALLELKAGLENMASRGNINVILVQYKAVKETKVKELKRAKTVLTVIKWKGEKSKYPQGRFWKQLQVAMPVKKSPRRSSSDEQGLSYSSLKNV

[2] = target: T1, human IL1RAP on the cell surface; assay: cell-based or functional assay; remark: listed apart in the source
[3] = target: T2, recombinant hIL1RAP Domain1+2+3 (aa21-367) (human, UniProt Q9NPH3 21-367); assay: bio-layer interferometry, human IL1RAP
T2 construct: Numbering on Uniprot Q9NPH3
T2 sequence (looked up): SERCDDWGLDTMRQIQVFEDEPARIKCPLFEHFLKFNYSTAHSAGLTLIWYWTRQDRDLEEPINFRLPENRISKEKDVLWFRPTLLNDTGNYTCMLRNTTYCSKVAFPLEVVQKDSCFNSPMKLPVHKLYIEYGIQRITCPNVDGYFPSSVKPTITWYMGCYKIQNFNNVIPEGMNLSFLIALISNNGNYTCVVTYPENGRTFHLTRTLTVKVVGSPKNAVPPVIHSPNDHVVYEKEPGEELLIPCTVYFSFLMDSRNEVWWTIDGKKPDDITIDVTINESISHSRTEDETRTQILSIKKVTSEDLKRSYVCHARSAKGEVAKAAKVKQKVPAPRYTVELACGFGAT
Experimental: (§1) Affinity measurements were done on BLItz™ Label-Free Protein Analysis System from ForteBio, using the Basic Kinetics module in the BLItz Pro 1.3.1.3 software from Molecular Devices. Protein A biosensors were hydrated in blocking buffer (PBS, 0.5% BSA, 0.05% Tween 20, pH 7.4) for minimum 10 min at room temperature before coating. Protein A biosensors were coated with antibodies by dipping the biosensors in 200 μl of antibody solution (10 μg/ml in blocking buffer) for 30 min at room temperature. The sensors were then incubated in 200 μl blocking buffer for at least 10 min before use. […] The baseline was made in blocking buffer with a duration time of 30 sec. Association was made for 120 sec in hIL1RAP followed by 120 sec dissociation in blocking buffer.
KD values for affinity towards human IL1RAP are shown in Table 17 for the de-immunized h48D2 variants. Affinity was measured using bio-layer interferometry. […] See also Table 4 for a direct comparison of 48D2, humanized 48D2, and de-immunized h48D2.

[4] = target: T2, recombinant hIL1RAP Domain1+2+3 …; assay: BLI (BLItz), antibody on Protein A biosensor, hIL1RAP (21-367) in solution
Experimental: as §1
Affinity measurement results are shown in Table 4 for chimeric 48D2, as well as for humanized 48D2 variant VH5:VL4 (see Example 11) and for humanized and de-immunized 48D2 variant VH5.GL:VL4 (see Example 13). kₐ is the association rate constant, for characterization of the antibody binding to the target, kd is the dissociation rate constant, for characterization of the antibody dissociation from the target, and KD is the equilibrium dissociation constant between the antibody and its antigen, the ratio of kd/kₐ. […] The lower the KD value (lower concentration), the higher the affinity.

[5] = target: T2, recombinant hIL1RAP Domain1+2+3 …; assay: indirect ELISA on coated IL1RAP, goat anti-human antibody-alkaline phosphatase, absorbance at 405 nm
[6] = target: T3, recombinant mf IL1RAP aa21-367 (cynomolgus monkey (Macaca fascicularis), UniProt A0A2K5X5J5 21-367); assay: as above
T3 construct: also called cynomolgus monkey IL1RAP; cyno IL1RAP
T3 sequence: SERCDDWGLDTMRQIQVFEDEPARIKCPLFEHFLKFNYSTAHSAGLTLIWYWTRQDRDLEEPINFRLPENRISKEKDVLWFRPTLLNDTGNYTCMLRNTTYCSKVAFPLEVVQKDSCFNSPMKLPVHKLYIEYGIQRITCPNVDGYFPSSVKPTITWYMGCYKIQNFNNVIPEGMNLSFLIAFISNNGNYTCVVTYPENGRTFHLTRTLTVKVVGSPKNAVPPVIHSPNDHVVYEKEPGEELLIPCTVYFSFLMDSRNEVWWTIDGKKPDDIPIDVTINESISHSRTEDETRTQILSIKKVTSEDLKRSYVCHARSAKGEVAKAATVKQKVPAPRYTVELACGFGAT

mouse IL1RAP [7] = target: T4, mouse IL1RAP (mouse (Mus musculus), UniProt Q61730 21-367, limits assumed); assay: as above
T4 construct: Coated ortholog in the cross reactivity ELISA; also called mIL1RAP; murine IL1RAP
T4 sequence (looked up): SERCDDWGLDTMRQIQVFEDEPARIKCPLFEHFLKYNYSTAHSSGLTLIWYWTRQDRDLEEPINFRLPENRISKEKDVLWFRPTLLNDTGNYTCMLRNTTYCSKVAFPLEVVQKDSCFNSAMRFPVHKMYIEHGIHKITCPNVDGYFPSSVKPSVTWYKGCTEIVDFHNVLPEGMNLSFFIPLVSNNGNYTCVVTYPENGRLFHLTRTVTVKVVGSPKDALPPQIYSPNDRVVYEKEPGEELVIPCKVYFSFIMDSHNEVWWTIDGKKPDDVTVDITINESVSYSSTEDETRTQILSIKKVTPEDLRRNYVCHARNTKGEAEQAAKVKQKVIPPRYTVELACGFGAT

rat IL1RAP [8] = target: T5, rat IL1RAP (rat (Rattus norvegicus), UniProt Q63621 21-367, limits assumed); assay: as above
T5 construct: also called rnIL1RAP
T5 sequence (looked up): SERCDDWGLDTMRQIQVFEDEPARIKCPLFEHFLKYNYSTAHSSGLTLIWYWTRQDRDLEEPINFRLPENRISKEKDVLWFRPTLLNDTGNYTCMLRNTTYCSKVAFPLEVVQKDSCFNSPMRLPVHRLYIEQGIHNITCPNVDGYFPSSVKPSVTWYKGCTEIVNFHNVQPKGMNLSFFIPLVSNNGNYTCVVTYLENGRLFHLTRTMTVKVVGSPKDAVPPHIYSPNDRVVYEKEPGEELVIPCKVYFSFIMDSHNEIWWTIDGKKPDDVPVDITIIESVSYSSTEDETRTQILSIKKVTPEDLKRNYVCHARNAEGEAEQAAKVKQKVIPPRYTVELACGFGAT

pig IL1RAP = target: T6, pig IL1RAP (pig (Sus scrofa), UniProt A0A287B9B9 21-357); assay: as above
T6 construct: also called ssIL1RAP
T6 sequence (A0A287B9B9 entry or part of it limits assumed): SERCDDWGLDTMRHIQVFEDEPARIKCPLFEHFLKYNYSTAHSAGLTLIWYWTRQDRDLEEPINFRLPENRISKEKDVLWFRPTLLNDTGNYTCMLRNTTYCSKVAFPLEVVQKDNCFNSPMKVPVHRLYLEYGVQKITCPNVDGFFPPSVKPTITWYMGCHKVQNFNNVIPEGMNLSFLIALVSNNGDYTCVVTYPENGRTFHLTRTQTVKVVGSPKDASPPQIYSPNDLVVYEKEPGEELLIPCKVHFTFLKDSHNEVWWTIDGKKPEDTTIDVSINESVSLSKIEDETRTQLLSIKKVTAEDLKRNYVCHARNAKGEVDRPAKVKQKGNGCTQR

[9] = target: T1, human IL1RAP on the cell surface; assay: cell-based or functional assay; remark: listed apart in the source
[10] = target: T1, human IL1RAP on the cell surface; assay: flow cytometry on SKMEL-5 cells, Alexa488 anti-human IgG secondary
Experimental: FIG. 12: Dose-dependent binding of chimeric 48D2 to cell membrane IL1RAP Chimeric 48D2 or hIgG1 (hIg=human immunoglobulin) isotype control antibody was added to SKMEL-5 cells in increasing concentrations and extracellular binding was analyzed by flow cytometry. Chimeric 48D2 specifically bound IL1RAP on the cell membrane in a dose-dependent manner and with higher mean fluorescent intensity (MFI) compared to the hIgG1 isotype control antibody.
The malignant melanoma (or malign melanoma) cell line SKMEL-5, which expresses IL1RAP on the cell surface, was used for the analysis. SKMEL-5 cells were cultured according to standard procedures. 5×10⁴ SKMEL-5 cells were blocked with human Fc block and then stained with 8-step serial dilutions (100 μg/ml-0.03 μg/ml) of chimeric 48D2 or isotype control antibody. Following secondary staining using Alexa488-conjugated anti-human IgG antibody, 10000 cells/sample were analyzed on a CytoFlex (Beckman Coulter). HTB183 cells expressing low levels of surface IL1RAP were used as negative controls.

mouse IL1RAP [11] = target: T4, mouse IL1RAP; assay: indirect ELISA on coated IL1RAP, goat anti-human antibody-alkaline phosphatase, absorbance at 405 nm; remark: listed apart in the source
Experimental: (§2) Microtiter plate wells were coated with IL1RAP orthologs (Mus musculus, Rattus norvegicus, Macaca fascicularis (Mf, synonymous to cynomolgus monkey), Oryctolagus cuniculus, Canis lupus familiaris, Sus scrofa) and incubated for 1 hour at 37° C. Plates were washed followed by a blocking step. After 1 hour incubation at room temperature on agitation, the plates were washed again. The antibody was diluted in fourfold serial dilution, ranging from 4000 ng/ml to 0.24 ng/ml, in ELISA blocking solution, and then transferred to the ELISA plate. Plates were incubated at 37° C. in 30 min on agitation and then washed. Goat Anti-Human antibody conjugated to Alkaline Phosphatase was added and incubated 30 min at 37° C. on agitation. The plates were washed followed by addition of substrate (4-Nitrophenyl phosphate disodium salt hexahydrate). The plates were thereafter incubated at room temperature on agitation and absorbance at 405 nm measured consecutively for 50 min. Absorbance at 0 min was taken as background signal.
(§3) The antibody is added in increasing concentrations and absorbance at 405 nm is used to detect binding of the antibody to IL1RAP orthologues. 48D2 is cross reactive to IL1RAP from human, cynomolgus monkey (cyno) and pig, but has no cross reactivity to IL1RAP from mouse, rat, rabbit or dog (FIG. 14 and Table 7).

rat IL1RAP [12] = target: T5, rat IL1RAP; assay: as above; remark: listed apart in the source
Experimental: as §2, §3

IC50 of IL-1α signaling (HEK-Blue assay) [1]: 268 pM
IC50 of IL-1β signaling (HEK-Blue assay) [1]: 97 pM
IC50 of IL-33 signaling (HEK-Blue assay) [1]: 7510 pM
IC50 of IL-36α signaling (HEK-Blue assay) [1]: 147 pM
IC50 of IL-36β signaling (HEK-Blue assay) [1]: 169 pM
IC50 of IL-36γ signaling (HEK-Blue assay) [1]: 206 pM
IC50 of IL-33 signaling (HEK-Blue cells stably transfected with the IL-36 receptor) [2]: 324 pM
IC50 of IL-36α signaling (HEK-Blue cells stably transfected with the IL-36 receptor) [2]: 55.7 pM
IC50 of IL-36β signaling (HEK-Blue cells stably transfected with the IL-36 receptor) [2]: 161 pM
IC50 of IL-36γ signaling (HEK-Blue cells stably transfected with the IL-36 receptor) [2]: 88 pM
Kd [3]: 2530 pM
Kd [4]: 2530 pM
koff [4]: 0.000197 s⁻¹
kon [4]: 78000 M⁻¹ s⁻¹
EC50 (read off the curve) [5]: ~0.05 µg/mL
EC50 (read off the curve) [6]: ~0.05 µg/mL
binding result (mouse IL1RAP [7]): no binding (tested: 4000 ng/mL)
binding result (rat IL1RAP [8]): no binding (tested: 4000 ng/mL)
EC50 (read off the curve) (pig IL1RAP): ~0.05 µg/mL
B1: h48D2 VH5.GL:VL4 (antibody, human IgG1, kappa, L234A L235A, V domains shown)
VH: QEQLEESGGGLVKPGGTLSLTCTVSGPSLSHFDITWIRQPPGKGLEWIGTISPGVSTYYASWAKSRVTISVDTSLNTVSLKLSSVTAADTATYFCARGGVGSSWKAFDLWGPGTLVTISS
VL: ELVMTQSPSSVSASVGDRVTITCQASESISTALAWYQQKPGKAPKLLIYKASTLPSGVPSRFSGSGSGTDFTLTINSLQPEDFATYYCQQGFSSGNVHNAFGGGTKVEIKR
notes: Humanized and de-immunized; also called VL4:VH5.GL; 48D2 variant VH5.GL:VL4

IC50 of IL-1α signaling (HEK-Blue assay) [9]: 1920 pM
IC50 of IL-1β signaling (HEK-Blue assay) [9]: 700 pM
IC50 of IL-33 signaling (HEK-Blue assay) [9]: 2920 pM
IC50 of IL-36α signaling (HEK-Blue assay) [9]: 8.3 pM
IC50 of IL-36β signaling (HEK-Blue assay) [9]: 8.1 pM
IC50 of IL-36γ signaling (HEK-Blue assay) [9]: 11.1 pM
EC50 (read off the curve) [10]: ~6000 pM
Kd [4]: 2670 pM
koff [4]: 0.000174 s⁻¹
kon [4]: 65200 M⁻¹ s⁻¹
binding result (mouse IL1RAP [11]): no binding (tested: 4000 ng/mL)
binding result (rat IL1RAP [12]): no binding (tested: 4000 ng/mL)
B2: chimeric 48D2 (antibody, V domains shown, not shown: a dimerising Fc or GST)
VH: QEQLEESGGGLVKPGGSLTLTCTVSGPSLSHFDITWVRQAPGSGLEWIGTISPGVSTYYASWAKSRSTITSNTNLNTVTLKMTSLTAADTATYFCARGGVGSSWKAFDLWGPGTLVTISS
VL: APVLTQTPASVEVAVGGTVTIKCQASESISTALAWYQQKPGQPPKLLIYKASTLPSGVSSRFKGSGSGTEFALTISDLECDDAATYYCQQGFSSGNVHNAFGGGTEVVVKR
notes: Chimeric rabbit/human IgG1, expressed in CHO cells; also called ch48D2; 48D2 chimeric (ch) rabbit/human anti-human IL1RAP
